# “And” between values parts separate entries of the source, which are not always exact repeats. Equal values may be shown once. Read-outs that look alike come from different tables or passages of the source.
# T1: recombinant human IL-23 (p19/p40) (human, UniProt Q9NPF7 20-189; P29460 23-328)
# T1 sequence (looked up) 1: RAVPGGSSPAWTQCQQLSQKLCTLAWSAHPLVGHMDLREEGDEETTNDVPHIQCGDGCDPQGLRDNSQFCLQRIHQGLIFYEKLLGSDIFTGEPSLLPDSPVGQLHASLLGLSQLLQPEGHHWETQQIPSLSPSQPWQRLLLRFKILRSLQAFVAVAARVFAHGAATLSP
# T1 sequence (looked up) 2: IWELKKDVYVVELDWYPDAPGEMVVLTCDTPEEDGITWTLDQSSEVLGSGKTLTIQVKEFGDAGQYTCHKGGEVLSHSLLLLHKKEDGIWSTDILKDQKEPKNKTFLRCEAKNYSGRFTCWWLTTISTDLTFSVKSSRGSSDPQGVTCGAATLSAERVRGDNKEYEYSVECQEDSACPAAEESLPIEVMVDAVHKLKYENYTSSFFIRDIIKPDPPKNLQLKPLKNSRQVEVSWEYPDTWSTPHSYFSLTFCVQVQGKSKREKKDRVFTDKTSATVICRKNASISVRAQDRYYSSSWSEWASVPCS
# T2: recombinant human IL-12 (human, UniProt P29459 23-219; P29460 23-328)
# T2 construct: Bought (R&D Systems); also called hIL-12
# T2 sequence (looked up) 1: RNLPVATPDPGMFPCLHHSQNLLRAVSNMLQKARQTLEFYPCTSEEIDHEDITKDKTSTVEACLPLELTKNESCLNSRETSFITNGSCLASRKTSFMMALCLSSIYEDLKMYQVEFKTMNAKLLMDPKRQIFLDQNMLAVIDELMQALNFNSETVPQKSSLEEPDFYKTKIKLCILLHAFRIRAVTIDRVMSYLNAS
# T2 sequence (looked up) 2: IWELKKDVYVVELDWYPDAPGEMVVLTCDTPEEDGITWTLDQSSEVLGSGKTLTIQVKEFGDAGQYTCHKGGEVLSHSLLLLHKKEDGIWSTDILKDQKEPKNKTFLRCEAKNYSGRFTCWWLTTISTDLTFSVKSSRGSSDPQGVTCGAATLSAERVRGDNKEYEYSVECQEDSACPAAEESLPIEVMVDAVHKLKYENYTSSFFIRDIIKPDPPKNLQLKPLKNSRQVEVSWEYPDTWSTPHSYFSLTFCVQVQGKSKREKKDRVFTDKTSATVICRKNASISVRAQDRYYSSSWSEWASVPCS
# Assays:
# [1] = molecular target: T1, recombinant human IL-23 (p19/p40); assay: cell-based or functional assay
# cynomolgus IL-23 [2] = molecular target: cynomolgus IL-23 (cynomolgus); assay: cell-based or functional assay
# [3] = molecular target: T1, recombinant human IL-23 (p19/p40); assay: SPR Biacore, hIL-23 on chip
# Protocol: (§1) Nanobody binding was assessed at one concentration (100 nM). Each Nanobody was injected for 4 minutes at a flow rate of 45 μl/min to allow binding to chip-bound antigen. Next, binding buffer without Nanobody was sent over the chip at the same flow rate to allow spontaneous dissociation of bound Nanobody.
# cynomolgus IL-23 [4] = molecular target: T3, cynomolgus IL-23 (cynomolgus); assay: SPR Biacore, cyno IL-23 on chip
# T3 construct: also called cyno IL-23; cIL-23
# recombinant human IL-12 [5] = molecular target: T2, recombinant human IL-12; assay: alpha-screen, hIL-12/IL12Rbeta1-Fc
# Protocol: Human IL-23R-Fc chimera and hIL12Rbeta1-Fc chimera (R&D Systems, Minneapolis, Minn., US) were coupled to acceptor beads according to manufacturer instructions (Perkin Elmer, Waltham, Mass., US).
# To this mixture, the IL12Rbeta1 acceptor beads and the streptavidin donor beads were added and further incubated for 1 hour at RT.
# recombinant human IL-12 [6] = molecular target: T2, recombinant human IL-12; assay: cell-based or functional assay
# [7] = molecular target: T1, recombinant human IL-23 (p19/p40); assay: SPR Biacore, hIL-23
# [8] = molecular target: T1, recombinant human IL-23 (p19/p40); assay: SPR Biacore, hIL-23 on chip; remark: listed apart in the source
# Protocol: as §1
# cynomolgus IL-23 [9] = molecular target: T3, cynomolgus IL-23; assay: SPR Biacore, cyno IL-23 on chip; remark: listed apart in the source
# [10] = molecular target: T1, recombinant human IL-23 (p19/p40); assay: cell-based or functional assay; remark: listed apart in the source
binder,measurement,setting,value
"P23IL3C1 (VHH, p40+ Nanobody) VHH: EVQLVESGGGSVQAGGSLRLSCKVSGIMFSDKGMGWFRQAPGKERETVAATNWSGGSTYYADSVKGRFTISRDNYKNTLHLQMASLKPEDTGIYYCAAAGDSWNSRRIEDYDYWGQGTPVTVSS","IC50, mouse splenocyte assay (mIL-22); nc = blocking not complete",[1],0.51 nM
same,"IC50, mouse splenocyte assay (mIL-22); nc = blocking not complete",cynomolgus IL-23 [2],0.517 nM
same,koff,[3],0.000294 s⁻¹
same,koff,cynomolgus IL-23 [4],5.9e-05 s⁻¹
same,IC50,recombinant human IL-12 [5],1 nM
"P23IL 84G12 (VHH, also called P23ILp40-PMP84G12) VHH: EVQLVESGGRLVQAGGSLRLSCAASGRTFDSNPMGWFRQAPGKKREFVAIISGNGGITNYANSVKGRFTISRDNAKNTIYLQMNSLKPEDTAVYYCAASGLYGSGSVYDLMYDYWGQGTQVTVSS",koff,[3],0.00029 s⁻¹
same,koff,cynomolgus IL-23 [4],7e-05 s⁻¹
"P23IL3G10 (VHH, p40+ Nanobody; c-myc, His6-tagged) VHH: EVQLVESGGGVVQAGESLRLSCAASGYNVKDYEMGWFRQAPGMEREFAAAISWRGSSTYYADSVKGRFTISRDNAKNTVYLQMSSLKPEDTAVYYCAAGRLYPSSRSRDYDYWGQGTQVTVSS","IC50, mouse splenocyte assay (mIL-22)",[1],2.33 nM
same,"IC50, mouse splenocyte assay (mIL-22)",cynomolgus IL-23 [2],9.45 nM
same,"IC50, PHA blast proliferation, 1 pM hIL-12",recombinant human IL-12 [6],194 pM
same,koff,[3],0.00197 s⁻¹
same,koff,cynomolgus IL-23 [4],0.002 s⁻¹ and 0.004 s⁻¹
same,IC50,recombinant human IL-12 [5],0.9 nM
"P23IL3B8 (VHH, p40+ Nanobody; c-myc, His6-tagged) VHH: EVQLVESGGGLVQPGGSLRLSCAASGFTFSSSVMFWLRQAPGKGLEWLSTIKPTGSTIYPGSGKGRFTISRDNAKNTLYLQINNLKPEDTALYYCARDIGGTVRGQGTQVTVSS","IC50, mouse splenocyte assay (mIL-22)",[1],0.408 nM
same,"IC50, mouse splenocyte assay (mIL-22)",cynomolgus IL-23 [2],1.79 nM
same,"IC50, PHA blast proliferation, 1 pM hIL-12; nc = no complete blocking",recombinant human IL-12 [6],1500 pM
same,koff,[3],0.0035 s⁻¹
same,IC50,recombinant human IL-12 [5],0.35 nM
"P23IL81E10 (VHH, p40+ Nanobody) VHH: EVQLVESGGGLVQAGGSLRLSCVASGRTFNTYGMGWFRQAPGKEREFVAANNWSGGATSYADSVKGRFTISRDNAKNTVFLQMNTLKPEDTAVYYCAAADRGGGWLVVRENDYDYWGQGTQVTVSS",koff,[3],0.00263 s⁻¹
same,koff,cynomolgus IL-23 [4],0.00132 s⁻¹ and 0.0012 s⁻¹
same,IC50,recombinant human IL-12 [5],23 nM
"P23IL81A12v4 (VHH, Final humanization variant of 81A12) VHH: EVQLLESGGGLVQPGGSLRLSCAASGRTLSSYAMGWFRQAPGKGREFVSRISQGGTAIYYADSVKGRFTISRDNSKNTLYLQMNSLRPEDTAVYYCAKDPSPYYRGSAYLLSGSYDSWGQGTLVTVSS",Kd,[7],0.33 nM
same,koff,[7],0.0002 s⁻¹
same,kon,[7],600000 M⁻¹ s⁻¹
P23IL 81A1 (VHH) VHH: EVQLVESGGGLVQTGGSLRLSCAASVINFRLADMDWYRQALGKQRELVASISTGYRTNYADFVKGRFTISRDNAKNTVYLQMDSLKPEDTAVYYCAARDLRGLRVDYWGQGTQVTVSS,koff,[8],0.00059 s⁻¹
same,koff,cynomolgus IL-23 [9],0.012 s⁻¹
P23IL-121A2-9GS-81G2 (bispecific antibody) EVQLVESGGGLVQAGGSLRLSCAASGSIFNFNYMGWFRQAPGKEREFVAAIRWSGSSTYYADSVKGRFTISRDDAKNTVALQMNSLKPEDTAIYYCALRKGIPYSTSDRVIKGVNDYDYWGQGTQVTVSSGGGGSGGGSEVQLVESGGGLVQPGGSLRLSCIASGLPFSTKSMGWFRQAPGKEREFVARISPGGTSRYYGDFVKGRFAISRDNAKNTTWLQMNSLKAEDTAVYYCASGERSTYIGSNYYRTNEYDYWGTGTQVTVSS,"IC50, splenocyte assay, 19 pM hIL-23",[10],740 pM
P23IL119A3-9GS-81G2 (bispecific antibody) EVQLVESGGGLVQAGGSLRLSCAASGRIFSLPASGNIFNLLTIAWHRQAPGMQRELVATINSGSRTNYADSVKGRFTISRDNAQKTVYLQMNNLKPEDTAVYYCQTSGSGSPNFWGQGTQVTVSSGGGGSGGGSEVQLVESGGGLVQPGGSLRLSCIASGLPFSTKSMGWFRQAPGKEREFVARISPGGTSRYYGDFVKGRFAISRDNAKNTTWLQMNSLKAEDTAVYYCASGERSTYIGSNYYRTNEYDYWGTGTQVTVSS,"IC50, splenocyte assay, 19 pM hIL-23",[10],1990 pM
